Reference: patent US20240124586A1 (WUXI BIOLOGICS IRELAND, published 2024)

T1: FcγRIIa (R167) (UniProt P12318 36-218, limits assumed)
T1 sequence (looked up): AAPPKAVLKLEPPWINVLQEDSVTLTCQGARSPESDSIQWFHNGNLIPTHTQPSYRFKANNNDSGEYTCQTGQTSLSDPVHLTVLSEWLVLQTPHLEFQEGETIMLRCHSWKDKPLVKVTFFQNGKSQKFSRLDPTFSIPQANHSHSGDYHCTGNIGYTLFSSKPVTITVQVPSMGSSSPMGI


Key:
[1] = target: T2, cynomolgus CTLA-4 on engineered 293F cells (W316-293F.cynoPro1.F1.Pool) (cynomolgus); test: FACS binding to cynomolgus CTLA-4 engineered cells
T2 construct: whole, on cells; also called cynomolgus CTLA-4 engineered cells
Protocol: 4-fold titrated Abs with 1% BSA DPBS from 40 μg/ml to 0.00004 μg/ml were added to the cells. Plates were incubated at 4° C. for 1 hour. After wash, […] 1:150 diluted PE-labeled goat anti-human antibody (Jackson 109-115-098) was added to each well and the plates were incubated at 4° C. for 1 hour. The binding of the antibodies onto the cells was tested by flow cytometry and the mean fluorescence intensity (MFI) was analyzed by FlowJo.

[2] = target: T3, ECD of human PD-1 (SPR analyte) (human, UniProt Q15116 25-170); test: SPR (Biacore), antibody captured as ligand on an anti-human IgG Fc chip, PD-1 ECD as analyte
T3 construct: extracellular domain; the SPR method only says ECD of PD-1; also called W305-hPro1.ECD.His
T3 sequence (Q15116 25-170): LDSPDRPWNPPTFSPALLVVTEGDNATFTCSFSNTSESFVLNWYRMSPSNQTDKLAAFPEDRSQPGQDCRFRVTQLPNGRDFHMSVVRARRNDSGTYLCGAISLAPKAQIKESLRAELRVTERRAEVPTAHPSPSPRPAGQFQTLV
Protocol: SPR technology was used to measure the on-rate constant (ka) and off-rate constant (kd) of the antibodies to ECD of CTLA-4 or PD-1. The affinity constant (KD) was consequently determined.
Biacore T200, Series S Sensor Chip CM5, Amine Coupling Kit, and 10×HBS-EP were purchased from GE Healthcare. Goat anti-human IgG Fc antibody was purchased from Jackson ImmunoResearch Lab (catalog number 109-005-098). In immobilization step, the activation buffer was prepared by mixing 400 mM EDC and 100 mM NHS immediately prior to injection. The CM5 sensor chip was activated for 420 s with the activation buffer. 30 μg/mL of goat anti-human IgG Fcγ antibody in 10 mM NaAc (pH 4.5) was then injected to Fc1-Fc4 channels for 200 s at a flow rate of 5 μL/min. The chip was deactivated by 1 M ethanolamine-HCl (GE). Then the antibodies were captured on the chip. Briefly, 4 μg/mL antibodies in running buffer (HBS-EP+) was injected individually to Fc3 channel for 30 s at a flow rate of […]. […] Regeneration buffer (10 mM Glycine pH 1.5) was injected at 10 μL min for 30 s following every dissociation phase.

[3] = target: T4, hCTLA4.ECD.hFc (human); test: dual-binding ELISA (hCTLA4.ECD.hFc coated, detected with hPD-1-ECD.Biotin), sample kept 0 d in human serum at 37 C
T4 construct: ECD fused to a human Fc; not biotinylated; also called Human CTLA-4: W316-hPro1.ECD.hFc (in house)
T4 sequence (P16410 36-161): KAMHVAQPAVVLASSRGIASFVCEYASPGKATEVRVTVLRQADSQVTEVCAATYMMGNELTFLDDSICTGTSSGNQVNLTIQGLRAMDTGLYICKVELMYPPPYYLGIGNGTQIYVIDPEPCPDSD
Protocol: (§1) The antibodies were incubated in freshly isolated human serum at 37° C. On indicated time points, an aliquot of serum treated sample was removed from the incubator and snap frozen in liquid nitrogen, and then stored at −80° C. until ready for a dual-binding ELISA test. The frozen samples were quickly thawed immediately prior to the stability test. Briefly, plates were pre-coated with 0.5 μg/mL of hCTLA4.ECD.hFc (in house) at 4° C. overnight. After 1-hour blocking, the testing antibodies were added to the plates at various concentrations. The plates were incubated at ambient temperature for 1 hour. Following the incubation, the plates were washed three times with 300 μL per well of PBS containing 0.5% (v/v) Tween 20. Then 0.1 μg/ml hPD-1-ECD.Biotin was added to plates and the mixture was incubated for 1 hour. After washing the plates three times, Streptavidin-HRP (Lifetechnologies, #SNN1004) (1:20000 diluted) was added and incubated on the plates for 1 hour at room temperature. After washing six times with 300 μL per well of PBS containing 0.5% (v/v) Tween 20, 100 μL tetramethylbenzidine (TMB) substrate is added for the detection per well. The reaction was stopped after approximately 5 minutes by addition of 100 μL per well of 2 M HCl. The absorbance of the wells was measured at 450 nm with a multiwall plate reader (SpectraMax® M5e). […]

[4] = target: T4, hCTLA4.ECD.hFc; test: dual-binding ELISA (hCTLA4.ECD.hFc coated, detected with hPD-1-ECD.Biotin), sample kept 4 d in human serum at 37 C
Protocol: as §1

[5] = target: T4, hCTLA4.ECD.hFc; test: dual-binding ELISA (hCTLA4.ECD.hFc coated, detected with hPD-1-ECD.Biotin), sample kept 14 d in human serum at 37 C
Protocol: as §1

[6] = target: T5, human CD3 on CD3+ Jurkat cells (human, UniProt P07766 23-207; P09693 23-182; P04234 22-171); test: flow cytometry on Jurkat cells
T5 construct: whole, on cells; also called CD3 positive Jurkat cells
T5 sequence (P07766 23-207, chain 1 of 3): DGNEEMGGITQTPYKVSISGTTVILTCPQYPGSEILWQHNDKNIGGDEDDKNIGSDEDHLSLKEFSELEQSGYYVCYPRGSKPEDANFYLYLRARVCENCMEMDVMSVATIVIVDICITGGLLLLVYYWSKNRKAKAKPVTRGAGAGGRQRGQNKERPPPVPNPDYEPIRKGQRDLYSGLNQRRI
T5 sequence (P09693 23-182, chain 2 of 3): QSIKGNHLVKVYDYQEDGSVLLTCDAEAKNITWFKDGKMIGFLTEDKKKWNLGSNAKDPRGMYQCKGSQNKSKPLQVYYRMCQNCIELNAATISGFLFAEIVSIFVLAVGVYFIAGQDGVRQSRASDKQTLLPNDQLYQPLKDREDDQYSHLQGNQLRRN
T5 sequence (P04234 22-171, chain 3 of 3): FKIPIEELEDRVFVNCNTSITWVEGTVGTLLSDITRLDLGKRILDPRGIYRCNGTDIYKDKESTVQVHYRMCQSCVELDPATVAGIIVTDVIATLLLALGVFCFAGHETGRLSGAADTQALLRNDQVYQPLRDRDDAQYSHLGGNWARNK

[7] = target: T1, FcγRIIa (R167); test: SPR (Biacore), receptor captured on anti-his chip, steady state model
Protocol: Antibody binding affinity to FcγRs was detected using Biacore T200 (or Biacore 8K). Each receptor was captured on an anti-his antibody immobilized CM5 sensor chip (GE). Antibodies at different concentrations were injected over the sensor chip at a flow rate of 30 uL/min for an association phase of 60 s, followed by 60 s dissociation. The chip was then regenerated by 10 mM glycine (pH 1.5) after each binding cycle.
The sensorgrams of blank surface and buffer channel were subtracted from the test sensorgrams. The experimental data was fitted by 1:1 model using Langmiur analysis (for FcγRI) or steady state model (for other receptors). A molecular weight of 150 KDa was used to calculate the molar concentration of antibodies.

[8] = target: T6, FcRn (UniProt P55899 24-297; P61769 21-119, limits assumed); test: SPR at pH 6.0, antibody immobilized, FcRn injected, steady state model; pH 6.0
T6 construct: a molecular weight of 45 kDa was used
Protocol: Antibody binding affinity to FcRn was detected using Biacore T200 (or Biacore 8K). Each antibody was immobilized on CM5 sensor chip (GE). FcRn at different concentrations in running buffer (50 mM Na2HPO4/NaH2PO4, 150 mM NaCl, 0.05% Tween20, pH 6.0) were injected over the sensor chip at a flow rate of 30 uL/min for an association phase of 60 s, followed by 60 s dissociation. The chip was then regenerated by 1×PBS (pH 7.4) after each binding cycle.

Row | EC50 [1] | Top(MFI) [1] | koff [2] | kon [2] | EC50 [3] | EC50 [4] | EC50 [5] | EC50 [6] | Kd [7] | Kd [8] | Binder
1 | 1.45 nM | 11200 MFI | 0.000844 s⁻¹ | 642000 M⁻¹ s⁻¹ | 0.092 nM | 0.0944 nM | 0.0989 nM | – | – | – | W3248-U6T5.G25-1.uIgG4.SP, bispecific anti-PD-1 x CTLA-4 (bispecific antibody, IgG4 (S228P); also called WBP3248-U6T5.G25-1-uIgG4.SP; U6T5.G25.IgG4) heavy: not shown light 1: SYELTQPLSVSVALGQTARITCGGDNIGNKDVHWYQQKPGQAPVLVIYRDSNRPSGIPEGFSGSNSGNTATLTISRAQAGDEADYYCQVWDSIWVFGGGTKLTVLPDIQNPDPAVYQLRDSKSSDKSVCLFTDFDSQTQVSQSKDSDVYITDKCVLDMRSMDFKSNSAVAWSQKSDFACANAFQNSIIPEDTFFPSPESS light 2: EIVLTQSPDFQSVTPKEKVTITCSANSALSYMYWYQQKPDQSPKLWVHGTSNLASGVPSRFSGSGSGTDFTLTINSLEAEDAATYYCHHWSNTQWTFGGGTKVEIKRTVAAPSVFIFPPSDEQLKSGTASVVCLLNNFYPREAKVQWKVDNALQSGNSQESVTEQDSKDSTYSLSSTLTLSKADYEKHKVYACEVTHQGLSSPVTKSFNRGEC
2 | 5.87 nM | 6650 MFI | 0.000675 s⁻¹ | 542000 M⁻¹ s⁻¹ | 0.14 nM | 0.141 nM | 0.156 nM | – | – | – | W3248-U6T1.G25R-1.uIgG4.SP, bispecific anti-PD-1 x CTLA-4 (bispecific antibody, IgG4 (S228P); also called U6T1.G25R.IgG4) heavy: EVQLLESGGGLVQPGGSLRLSCAASGFTFSSHAMSWVRQAPGKGLEWVSTITGGGGSIYYADSVKGRFTISRDNSKNTLYLQMNSLRAEDTAVYYCAKNRAGEGYFDYWGQGTLVTVSSASTKGPSVFPLAPCSRSTSESTAALGCLVKDYFPEPVTVSWNSGALTSGVHTFPAVLQSSGLYSLSSVVTVPSSSLGTKTYTCNVDHKPSNTKVDKRVGGGGSGGGGSQVQLVESGGGVVQPGRSLRLSCAASGFTFSSYTMHWVRQAPGKGLEWVTFISYDGNNKYYADSVKGRFTISRDNSKNTLYLQMNSLRAEDTAIYYCARTGWLGPFDYWGQGTLVTVLEDLKNVFPPEVAVFEPSEAEISHTQKATLVCLATGFYPDHVELSWWVNGKEVHSGVCTDPQPLKEQPALQDSRYALSSRLRVSATFWQNPRNHFRCQVQFYGLSENDEWTQDRAKPVTQIVSAEAWGRYGPPCPPCPAPEFLGGPSVFLFPPKPKDTLMISRTPEVTCVVVDVSQEDPEVQFNWYVDGVEVHNAKTKPREEQFNSTYRVVSVLTVLHQDWLNGKEYKCKVSNKGLPSSIEKTISKAKGQPREPQVYTLPPSQEEMTKNQVSLTCLVKGFYPSDIAVEWESNGQPENNYKTTPPVLDSDGSFFLYSRLTVDKSRWQEGNVFSCSVMHEALHNHYTQKSLSLSLG light 1: SYELTQPLSVSVALGQTARITCGGDNIGNKDVHWYQQKPGQAPVLVIYRDSNRPSGIPEGFSGSNSGNTATLTISRAQAGDEADYYCQVWDSIWVFGGGTKLTVLGQPKAAPSVTLFPPSSEELQANKATLVCLISDFYPGAVTVAWKADSSPVKAGVETTTPSKQSNNKYAASSYLSLTPEQWKSHKSYSCQVTHEGSTVEKTVAPTECS light 2: not shown
3 | – | – | – | – | – | – | – | 47 nM | 15800 nM | 2580 nM | W3438-T3U4.E17-1.uIgG4.SP, bispecific anti-CD3 x CD19 (bispecific antibody, also called E17-Design_2-QQQQ (IgG4); E17-IgG4; copies: 1 + 1 + 1 + 1) heavy 1: QVQLVQSGAEVKKPGSSVKVSCKASGFAFTDYYIHWVRQAPGQGLEWMGWISPGNVNTKYNENFKGRVTITADKSTSTAYMELSSLRSEDTAVYYCARDGYSLYYFDYWGQGTLVTVLEDLKNVFPPEVAVFEPSEAEISHTQKATLVCLATGFYPDHVELSWWVNGKEVHSGVCTDPQPLKEQPALQDSRYALSSRLRVSATFWQNPRNHFRCQVQFYGLSENDEWTQDRAKPVTQIVSAEAWGRYGPPCPPCPAPEFLGGPSVFLFPPKPKDTLMISRTPEVTCVVVDVSQEDPEVQFNWYVDGVEVHNAKTKPREEQFNSTYRVVSVLTVLHQDWLNGKEYKCKVSNKGLPSSIEKTISKAKGQPREPQVYTLPPCQEEMTKNQVSLWCLVKGFYPSDIAVEWESNGQPENNYKTTPPVLDSDGSFFLYSRLTVDKSRWQEGNVFSCSVMHEALHNHYTQKSLSLSLGK light 1: DIVMTQSPDSLAVSLGERATINCKSSQSLLNSRTRKNYLAWYQQKPGQPPKLLIYWASTRQSGVPDRFSGSGSGTDFTLTISSLQAEDVAVYYCTQSHTLRTFGGGTKVEIKPDIQNPDPAVYQLRDSKSSDKSVCLFTDFDSQTQVSQSKDSDVYITDKCVLDMRSMDFKSNSAVAWSQKSDFACANAFQNSIIPEDTFFPSPESS heavy 2: QMQLVQSGPEVKKPGTSVKVSCKASGYAFTSYNMYWVRQARGQRLEWIGYIDPYNGDTTYNQKFKGRVTITRDMSTSTAYMELSSLRSEDTAVYYCLTTAYAMDYWGQGTLVTVSSASTKGPSVFPLAPCSRSTSESTAALGCLVKDYFPEPVTVSWNSGALTSGVHTFPAVLQSSGLYSLSSVVTVPSSSLGTKTYTCNVDHKPSNTKVDKRVESKYGPPCPPCPAPEFLGGPSVFLFPPKPKDTLMISRTPEVTCVVVDVSQEDPEVQFNWYVDGVEVHNAKTKPREEQFNSTYRVVSVLTVLHQDWLNGKEYKCKVSNKGLPSSIEKTISKAKGQPREPQVCTLPPSQEEMTKNQVSLSCAVKGFYPSDIAVEWESNGQPENNYKTTPPVLDSDGSFFLVSRLTVDKSRWQEGNVFSCSVMHEALHNHYTQKSLSLSLGK light 2: DIQLTQSPSFLSASVGDRVTITCSASSTVNYMHWYQQKPGKAPKLLIYSTSNLASGVPSRFSGSGSGTEFTLTISSLQPEDFATYYCHQWSSYPYTFGQGTKLEIKRTVAAPSVFIFPPSDEQLKSGTASVVCLLNNFYPREAKVQWKVDNALQSGNSQESVTEQDSKDSTYSLSSTLTLSKADYEKHKVYACEVTHQGLSSPVTKSFNRGEC
